Measured values as given in patent publication US20180155451A1 (published 2018).

T1: FcγRIIa R (human, UniProt P12318 34-217)
T1 construct: extracellular domain; also called FcgRIIa R type; 2aR
T1 sequence (looked up): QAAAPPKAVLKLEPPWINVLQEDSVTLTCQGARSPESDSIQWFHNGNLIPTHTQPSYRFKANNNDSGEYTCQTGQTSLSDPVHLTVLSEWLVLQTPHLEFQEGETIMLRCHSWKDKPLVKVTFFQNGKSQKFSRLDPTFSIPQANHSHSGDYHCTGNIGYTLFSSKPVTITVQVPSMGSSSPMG

T2: FcγRIIb (human, UniProt P31994 43-217)
T2 construct: extracellular domain; also called FcgRIIb; 2b
T2 sequence (looked up): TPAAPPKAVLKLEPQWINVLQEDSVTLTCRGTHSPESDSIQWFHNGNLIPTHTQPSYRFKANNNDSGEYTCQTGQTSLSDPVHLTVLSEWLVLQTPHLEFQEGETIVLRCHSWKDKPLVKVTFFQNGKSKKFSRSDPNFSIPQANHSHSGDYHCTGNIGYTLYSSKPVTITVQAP

B1: GpH7-A5/GpH7-B3 variant E269_01G/GpL16-k0 (antibody, human IgG1, kappa)
heavy 1: not shown
heavy 2: not shown
light: DIVMTQSPLSLPVTPGEPASISCQASESLVHSNRNTYLHWYLQKPGQSPQLLIYKVSNRFSGVPDRFSGSGSGTDFTLKISRVEAEDVGVYYCSQNTHVPPTFGQGTKVEIERTVAAPSVFIFPPSDEQLKSGTASVVCLLNNFYPREAKVQWKVDNALQSGNSQESVTEQDSKDSTYSLSSTLTLSKADYEKHKVYACEVTHQGLSSPVTKSFNRGEC
notes: heterodimerized antibody, mutation in the GpH7-B3 chain only; also called He Ab
B2: GpH7-A5/GpH7-B3 variant E269_06M/GpL16-k0 (antibody, human IgG1, kappa)
heavy 1: not shown
heavy 2: not shown
light: B1 light
notes: as for B1
B3: GpH7-A5/GpH7-B3 variant P271_20W/GpL16-k0 (antibody, human IgG1, kappa)
heavy 1: not shown
heavy 2: not shown
light: B1 light
notes: as for B1
B4: GpH7-A5/GpH7-B3 variant D265_18N/GpL16-k0 (antibody, human IgG1, kappa)
heavy 1: not shown
heavy 2: not shown
light: B1 light
notes: as for B1
B5: GpH7-A5/GpH7-B3 variant E269_08L/GpL16-k0 (antibody, human IgG1, kappa)
heavy 1: not shown
heavy 2: not shown
light: B1 light
notes: as for B1
B6: GpH7-A5/GpH7-B3 variant P271_04F/GpL16-k0 (antibody, human IgG1, kappa)
heavy 1: not shown
heavy 2: not shown
light: B1 light
notes: as for B1
B7: GpH7-A5/GpH7-B3 variant E269_16H/GpL16-k0 (antibody, human IgG1, kappa)
heavy 1: not shown
heavy 2: not shown
light: B1 light
notes: as for B1
B8: GpH7-A5/GpH7-B3 variant E269_04F/GpL16-k0 (antibody, human IgG1, kappa)
heavy 1: not shown
heavy 2: not shown
light: B1 light
notes: as for B1
B9: GpH7-A5/GpH7-B3 variant E269_02A/GpL16-k0 (antibody, human IgG1, kappa)
heavy 1: not shown
heavy 2: not shown
light: B1 light
notes: as for B1
B10: GpH7-A5/GpH7-B3 variant D265_10E/GpL16-k0 (antibody, human IgG1, kappa)
heavy 1: not shown
heavy 2: not shown
light: B1 light
notes: as for B1
B11: GpH7-A5/GpH7-B3 variant E269_11K/GpL16-k0 (antibody, human IgG1, kappa)
heavy 1: not shown
heavy 2: not shown
light: B1 light
notes: as for B1
B12: GpH7-A5/GpH7-B3 variant D265_14T/GpL16-k0 (antibody, human IgG1, kappa)
heavy 1: not shown
heavy 2: not shown
light: B1 light
notes: as for B1
B13: GpH7-A5/GpH7-B3 variant E269_20W/GpL16-k0 (antibody, human IgG1, kappa)
heavy 1: not shown
heavy 2: not shown
light: B1 light
notes: as for B1
B14: GpH7-A5/GpH7-B3 variant D265_12R/GpL16-k0 (antibody, human IgG1, kappa)
heavy 1: not shown
heavy 2: not shown
light: B1 light
notes: as for B1
B15: GpH7-A5/GpH7-B3 variant E269_07I/GpL16-k0 (antibody, human IgG1, kappa)
heavy 1: not shown
heavy 2: not shown
light: B1 light
notes: as for B1

Each binder was assayed against T1, FcγRIIa R (assay: SPR; He/Con_2aR divided by He/Con_2b (FcγRIIb as reference)).
Procedure: (§1) The heterodimerized antibodies He Abs in which one of the H chains was introduced with an alteration were assayed for their binding activities to each activating FcγR and inhibitory FcγR according to the method described in Example 4. […] The activating FcγRs in FIGS. 26, 27, 28, and 29 are FcγRIa, FcγRIIa (R), FcγRIIa (H), and FcγRIIIa, respectively.
(§2) Analysis of interaction between objective antibody and the FcγR was carried out using Biacore T100 (GE Healthcare). HBS-EP+ (GE Healthcare) was used as the running buffer, and the measurement temperature was set to 25° C. Chips produced by immobilizing the antigen peptide by the amine coupling method to a Series S Sencor Chip CM5 (GE Healthcare), or alternatively, chips produced by allowing preliminarily biotinylated antigen peptides to interact with and immobilize onto a Series S Sensor Chip SA (certified) (GE Healthcare) were used. Antibodies of interest were captured onto an antigen peptide-immobilized chip, and allowed to interact to each FcγR diluted with running buffer. To regenerate and repeatedly use the chip, the antibodies captured on the chip were washed off by reacting 10 mM glycine-HCl, pH 1.5.

Point of comparison: B7, “IIaR/IIb (He_2aR/2b)” value 1.32 ratio. Against it:
- B1 — lower, 1.27 ratio
- B2 — the same, 1.32 ratio
- B3 — higher, 1.33 ratio
- B4 — higher, 2.02 ratio
- B5 — higher, 1.33 ratio
- B6 — lower, 1.28 ratio
- B8 — lower, 1.29 ratio
- B9 — lower, 1.31 ratio
- B10 — higher, 1.52 ratio
- B11 — higher, 2.14 ratio
- B12 — higher, 1.61 ratio
- B13 — lower, 1.3 ratio
- B14 — higher, 2.15 ratio
- B15 — higher, 1.34 ratio

The binders below were run against T1, FcγRIIa R (assay: SPR (Biacore), antibody captured, FcγR as analyte; relative binding).
Procedure: as §1, §2

Point of comparison: B11, “He/Con_2aR (IIaR binding)” value 38.1 % of GpH7-A5/GpH7-B3/GpL16-k0 (=100). Against it:
- B1 — higher, 65.3 % of GpH7-A5/GpH7-B3/GpL16-k0 (=100)
- B2 — higher, 61.7 % of GpH7-A5/GpH7-B3/GpL16-k0 (=100)
- B3 — higher, 77.3 % of GpH7-A5/GpH7-B3/GpL16-k0 (=100)
- B4 — lower, 12.4 % of GpH7-A5/GpH7-B3/GpL16-k0 (=100)
- B5 — higher, 57.2 % of GpH7-A5/GpH7-B3/GpL16-k0 (=100)
- B6 — higher, 75.9 % of GpH7-A5/GpH7-B3/GpL16-k0 (=100)
- B7 — higher, 50.7 % of GpH7-A5/GpH7-B3/GpL16-k0 (=100)
- B8 — higher, 58.2 % of GpH7-A5/GpH7-B3/GpL16-k0 (=100)
- B9 — higher, 65.3 % of GpH7-A5/GpH7-B3/GpL16-k0 (=100)
- B10 — higher, 58.2 % of GpH7-A5/GpH7-B3/GpL16-k0 (=100)
- B12 — lower, 25.8 % of GpH7-A5/GpH7-B3/GpL16-k0 (=100)
- B13 — higher, 55.5 % of GpH7-A5/GpH7-B3/GpL16-k0 (=100)
- B14 — lower, 32.2 % of GpH7-A5/GpH7-B3/GpL16-k0 (=100)
- B15 — higher, 58.8 % of GpH7-A5/GpH7-B3/GpL16-k0 (=100)

The binders below were run against T2, FcγRIIb in the same assay as above.
Procedure: as §1, §2

Point of comparison: B3, “He/Con_2b (IIb binding)” value 58.1 % of GpH7-A5/GpH7-B3/GpL16-k0 (=100). Against it:
- B1 — lower, 51.5 % of GpH7-A5/GpH7-B3/GpL16-k0 (=100)
- B2 — lower, 46.7 % of GpH7-A5/GpH7-B3/GpL16-k0 (=100)
- B4 — lower, 6.1 % of GpH7-A5/GpH7-B3/GpL16-k0 (=100)
- B5 — lower, 42.9 % of GpH7-A5/GpH7-B3/GpL16-k0 (=100)
- B6 — higher, 59.5 % of GpH7-A5/GpH7-B3/GpL16-k0 (=100)
- B7 — lower, 38.5 % of GpH7-A5/GpH7-B3/GpL16-k0 (=100)
- B8 — lower, 45 % of GpH7-A5/GpH7-B3/GpL16-k0 (=100)
- B9 — lower, 49.9 % of GpH7-A5/GpH7-B3/GpL16-k0 (=100)
- B10 — lower, 38.2 % of GpH7-A5/GpH7-B3/GpL16-k0 (=100)
- B11 — lower, 17.8 % of GpH7-A5/GpH7-B3/GpL16-k0 (=100)
- B12 — lower, 16 % of GpH7-A5/GpH7-B3/GpL16-k0 (=100)
- B13 — lower, 42.5 % of GpH7-A5/GpH7-B3/GpL16-k0 (=100)
- B14 — lower, 15 % of GpH7-A5/GpH7-B3/GpL16-k0 (=100)
- B15 — lower, 43.9 % of GpH7-A5/GpH7-B3/GpL16-k0 (=100)
